Source: US20230227547A1 (IPROGEN BIOTECH, published 2023)
Values belong to the binder of their own block, whether it stands above or below them.

How the values were obtained:
[1] = biological target: T1, CD33A (human, UniProt P20138 18-364); experiment: summary sentence of Example 3
T1 construct: whole, on cells

[2] = biological target: T2, sodium-dependent phosphate transport protein 2B (NaPi2b) (human, UniProt O95436 1-690); experiment: fluorescence microscopy, goat anti-human IgG-AlexaFluor488, OVCAR3 cells, 100 nM mAb, 3 h
T2 construct: whole, on cells
T2 sequence (looked up): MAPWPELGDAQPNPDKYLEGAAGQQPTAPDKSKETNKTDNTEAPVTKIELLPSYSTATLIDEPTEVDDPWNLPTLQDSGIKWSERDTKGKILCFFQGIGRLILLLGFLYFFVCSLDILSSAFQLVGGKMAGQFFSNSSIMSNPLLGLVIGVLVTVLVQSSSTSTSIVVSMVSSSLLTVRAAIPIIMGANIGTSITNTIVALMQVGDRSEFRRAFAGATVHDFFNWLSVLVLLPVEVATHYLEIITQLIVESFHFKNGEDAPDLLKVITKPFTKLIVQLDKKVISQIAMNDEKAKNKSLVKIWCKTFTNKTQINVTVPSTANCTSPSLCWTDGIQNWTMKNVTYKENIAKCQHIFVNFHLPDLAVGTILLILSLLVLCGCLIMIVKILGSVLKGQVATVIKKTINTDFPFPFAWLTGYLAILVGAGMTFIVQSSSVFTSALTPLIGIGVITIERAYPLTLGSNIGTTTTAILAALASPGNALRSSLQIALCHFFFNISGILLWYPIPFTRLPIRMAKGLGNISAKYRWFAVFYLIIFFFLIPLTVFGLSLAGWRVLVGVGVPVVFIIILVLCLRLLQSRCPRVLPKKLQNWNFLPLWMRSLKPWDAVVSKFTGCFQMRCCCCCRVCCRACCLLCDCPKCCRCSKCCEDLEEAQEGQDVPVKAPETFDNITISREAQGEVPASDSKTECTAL
Method: (§1) Delivery assay. […] The permeabilized cells were then incubated with 5% (v/v) FBS, 0.05% (v/v) Tween-20 in PBS at 37 degree Celsius incubator for 30 minutes. […] After incubation, the labelled cells were washed twice with PBS, and stored in storage buffer [5% (v/v) FBS in PBS] at 4 degree Celsius until fluorescence microscope imaging.

[3] = biological target: T3, Epithelial cell adhesion molecule (EpCAM) (human, UniProt P16422 24-314); experiment: fluorescence microscopy, goat anti-human IgG-AlexaFluor488, LnCap cells, 100 nM mAb, 3 h
T3 construct: whole, on cells
T3 sequence (looked up): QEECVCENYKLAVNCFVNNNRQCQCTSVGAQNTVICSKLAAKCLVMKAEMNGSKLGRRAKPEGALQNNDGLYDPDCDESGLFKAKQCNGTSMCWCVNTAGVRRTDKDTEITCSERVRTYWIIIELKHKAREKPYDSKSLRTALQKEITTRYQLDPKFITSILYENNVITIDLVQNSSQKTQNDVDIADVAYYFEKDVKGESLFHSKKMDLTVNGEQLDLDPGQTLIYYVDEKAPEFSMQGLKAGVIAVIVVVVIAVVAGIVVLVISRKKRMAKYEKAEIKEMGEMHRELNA
Method: as §1

[4] = biological target: T2, sodium-dependent phosphate transport …; experiment: fluorescence microscopy, goat anti-human IgG-AlexaFluor488, OVCAR3 cells, 100 nM mAb-LL37, 3 h
Method: as §1

[5] = biological target: T4, folate receptor (human, UniProt P15328 25-234); experiment: summary sentence of Example 3
T4 construct: whole, on cells; also called folate receptor alpha

[6] = biological target: T3, Epithelial cell adhesion molecule …; experiment: fluorescence microscopy, goat anti-human IgG-AlexaFluor488, LnCap cells, 100 nM mAb-LL37, 3 h
Method: as §1

T1 sequence (P20138 18-364): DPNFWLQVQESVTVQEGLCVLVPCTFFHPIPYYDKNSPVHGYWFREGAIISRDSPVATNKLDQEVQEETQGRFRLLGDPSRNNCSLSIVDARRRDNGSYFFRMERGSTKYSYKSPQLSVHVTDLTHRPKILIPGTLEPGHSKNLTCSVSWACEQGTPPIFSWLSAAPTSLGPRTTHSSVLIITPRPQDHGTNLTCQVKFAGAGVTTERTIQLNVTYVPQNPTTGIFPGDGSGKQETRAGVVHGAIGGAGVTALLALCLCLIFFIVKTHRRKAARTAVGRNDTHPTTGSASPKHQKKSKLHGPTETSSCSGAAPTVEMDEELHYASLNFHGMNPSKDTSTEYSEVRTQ
T4 sequence (P15328 25-234): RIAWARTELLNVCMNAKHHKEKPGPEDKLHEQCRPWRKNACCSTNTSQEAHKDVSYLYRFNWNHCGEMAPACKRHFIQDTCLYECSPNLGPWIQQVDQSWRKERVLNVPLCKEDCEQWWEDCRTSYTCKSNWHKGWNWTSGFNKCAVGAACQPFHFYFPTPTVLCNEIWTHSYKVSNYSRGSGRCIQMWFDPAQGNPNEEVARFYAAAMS

binding result [1]: binds
B1: Anti-CD33A mAb (Vadastuximab)-LL37 (antibody, human IgG1, kappa)
heavy: not shown
light: DIQMTQSPSSLSASVGDRVTINCKASQDINSYLSWFQQKPGKAPKTLIYRANRLVDGVPSRFSGSGSGQDYTLTISSLQPEDFATYYCLQYDEFPLTFGGGTKVEIKRTVAAPSVFIFPPSDEQLKSGTASVVCLLNNFYPREAKVQWKVDNALQSGNSQESVTEQDSKDSTYSLSSTLTLSKADYEKHKVYACEVTHQGLSSPVTKSFNRGECGGGGSLPMTGGLLGDFFRKSKEKIGKEFKRIVQRIKDFLRNLVPRTES

binding result [2]: binds
B2: Anti-NaPi2b mAb, Lifastuzumab (antibody, human IgG1, kappa)
heavy: not shown
light: DIQMTQSPSSLSASVGDRVTITCRSSETLVHSSGNTYLEWYQQKPGKAPKLLIYRVSNRFSGVPSRFSGSGSGTDFTLTISSLQPEDFATYYCFQGSFNPLTFGQGTKVEIKRTVAAPSVFIFPPSDEQLKSGTASVVCLLNNFYPREAKVQWKVDNALQSGNSQESVTEQDSKDSTYSLSSTLTLSKADYEKHKVYACEVTHQGLSSPVTKSFNRGECGGGGSLPMTGGHG

binding result [3]: binds
B3: Anti-EpCAM mAb, Citatuzumab (antibody, human IgG1, kappa)
heavy: not shown
light: DIQMTQSPSSLSASVGDRVTITCRSTKSLLHSNGITYLYWYQQKPGKAPKLLIYQMSNLASGVPSRFSSSGSGTDFTLTISSLQPEDFATYYCAQNLEIPRTFGQGTKVEIKRTVAAPSVFIFPPSDEQLKSGTASVVCLLNNFYPREAKVQWKVDNALQSGNSQESVTEQDSKDSTYSLSSTLTLSKADYEKHKVYACEVTHQGLSSPVTKSFNRGECGGGGSLPMTGGHG

binding result [4]: binds
B4: Lifastuzumab-LL37 (LL37-linked anti-NaPi2b mAb) (antibody, human IgG1, kappa)
heavy: not shown
light: DIQMTQSPSSLSASVGDRVTITCRSSETLVHSSGNTYLEWYQQKPGKAPKLLIYRVSNRFSGVPSRFSGSGSGTDFTLTISSLQPEDFATYYCFQGSFNPLTFGQGTKVEIKRTVAAPSVFIFPPSDEQLKSGTASVVCLLNNFYPREAKVQWKVDNALQSGNSQESVTEQDSKDSTYSLSSTLTLSKADYEKHKVYACEVTHQGLSSPVTKSFNRGECGGGGSLPMTGGLLGDFFRKSKEKIGKEFKRIVQRIKDFLRNLVPRTES

binding result [5]: binds
B5: Anti-folate receptor mAb-LL37 (Mirvetuximab-LL37) (antibody, human IgG1, kappa)
heavy: not shown
light: DIVLTQSPLSLAVSLGQPAIISCKASQSVSFAGTSLMHWYHQKPGQQPRLLIYRASNLEAGVPDRFSGSGSKTDFTLTISPVEAEDAATYYCQQSREYPYTFGGGTKLEIKRTVAAPSVFIFPPSDEQLKSGTASVVCLLNNFYPREAKVQWKVDNALQSGNSQESVTEQDSKDSTYSLSSTLTLSKADYEKHKVYACEVTHQGLSSPVTKSFNRGECGGGGSLPETGGLLGDFFRKSKEKIGKEFKRIVQRIKDFLRNLVPRTES
notes: also called anti-folate receptor mAb (mirvetuximab) with LL37 conjugation

binding result [6]: binds
B6: Citatuzumab-LL37 (LL37-conjugated anti-EpCAM antibody citatuzumab) (antibody, human IgG1, kappa)
heavy: not shown
light: DIQMTQSPSSLSASVGDRVTITCRSTKSLLHSNGITYLYWYQQKPGKAPKLLIYQMSNLASGVPSRFSSSGSGTDFTLTISSLQPEDFATYYCAQNLEIPRTFGQGTKVEIKRTVAAPSVFIFPPSDEQLKSGTASVVCLLNNFYPREAKVQWKVDNALQSGNSQESVTEQDSKDSTYSLSSTLTLSKADYEKHKVYACEVTHQGLSSPVTKSFNRGECGGGGSLPMTGGLLGDFFRKSKEKIGKEFKRIVQRIKDFLRNLVPRTES
